Biological target: the molecule itself
Assay: X-ray crystal structure of CD81-LEL

B1: CD81-LEL (large extracellular loop of human CD81, amino acids 113-201) with C-terminal His-tag (receptor)
chain: FVNKDQIAKDVKQFYDQALQQAVVDDDANNAKAVVKTFHETLDCCGSSTLTALTTSVLKNNLCPSGSNIISNLFKEDCHQKIDDLFSGKHHHHHH
notes: Made in E. coli as a fusion with S. aureus Protein A and released by protease (thrombin) cleavage; it forms a homodimer in the crystal, with two chains per asymmetric unit; also called LEL-(His)6; hCD81-LEL
Q: Does B1 bind?
A: Result: binds
